B1: Nuclear receptor subfamily 1 group D member 2, residues 103 to 171; numbered along this chain, Q14995 (parent)
chain: CKVCGDVASGFHYGVHACEGCKGFFRRSIQQNIQYKKCLKNENCSIMRMNRNRCQQCRFKKCLSVGMSR
B2: Zinc finger protein ZIC 2, residues 250 to 295; numbered along this chain, O95409 (parent)
chain: QCIKQELICKWIDPEQLSNPKKSCNKTFSTMHELVTHVSVEHVGGP

Variants of: B1
Experiment: abundance fitness (aPCA) (normalised: wild type 0, dead -1); higher = more abundant; growth selection in yeast, the domain comes from the species named
Settings: Homo sapiens

Abundance fitness, by site and new letter:
C1: F -0.451, G -0.939, E -0.613
A8: L -0.998, D -0.724, M -0.584, G -0.597, F -0.855, P -0.893, K -0.42, N -0.476, C -0.494
K2: Y -0.7, G -0.623, S -0.336, M -0.401, D -0.482, N -0.011, A 0.016, F -0.53, R -0.029, L -0.491, E -0.174, C -0.578, Q -0.049, I -0.367, T -0.186, W -0.673, V -0.474
C4: S -0.819, W -0.83, L -0.902, T -0.599, G -0.795, V -0.941, A -0.949, E -0.687
V7: F -0.061, Q 0.118, L -0.119, T -0.126, W -0.195, N -0.019, C -0.526, M -0.032, D -0.001, P -0.295, E 0.057, A -0.153, R 0.032, K 0.167, S -0.083, G -0.469
G5: E -0.605, C -0.769, T -0.802, P -0.598, L -0.787, M -0.226, H -0.623, Y -1.11, I -0.83, K -0.5, Q -0.476, D -0.645, W -0.684, V -0.815, R -0.824, A -0.621, F -0.918, S -0.689
V3: A -0.74, D -0.763, R -1.25, S -0.161, G -0.738, I -0.293, N -0.78, E -0.754
D6: M -0.345, G -0.535, T -0.47, A 0.04, E -0.06, S -0.706, L -0.572, F -0.694, V -0.56, Q -0.513, Y -0.445, R -0.857, K -0.862

Variants of: B2
Experiment: as above
Settings: Homo sapiens

Abundance fitness, by site and new letter:
E33: H -0.434, I -0.932, W -0.979, M -0.751, C -0.777, S -0.452, V -0.838, L -0.735, P -0.826, R -0.69, Q -0.046, F -1.03, D 0.086, N -0.726, K -0.615, A -0.342, G -0.166, Y -1.01
S39: R 0.056, E 0.334, V -0.357, A 0.129, Q 0.296, D 0.414, H -0.241, M -0.274, L -0.356, W -0.292, T -0.065, N -0.007, G -0.019, F -0.663, C -0.016, P -0.666, I -0.681, Y -0.873
T36: L -0.453, F -0.483, V -0.38, E -0.025, A -0.178, S 0.018, D -0.068, W -0.081, K 0.141, G -0.032, M -0.341, Q 0.055, N -0.232, Y -0.25, C -0.236, H -0.283
V43: Y 0.485, F 0.063, S 0.313, E 0.587, H 0.012, A 0.052, W -0.332, M -0.126, Q 0.116, T 0.108, G 0.247, L -0.299, R 0.226, P 0.129, K 0.088
V35: Y 0.296, I 0.03, T 0.302, A -0.04, R 0.193, M 0.245, P -0.848, E 0.529, W 0.2, G 0.118, K 0.446, S 0.5, Q 0.543, F 0.054, N 0.761
V38: M 0.278, K 0.623, S 0.202, I -0.021, E 0.518, P -0.417, C -0.066, Y 0.066, N 0.035, Q 0.43, D -0.159, T 0.052, F 0.08, H -0.121, A -0.161, W 0.82, R 0.607, G -0.095, L -0.165
H42: F -1.04, G -0.661, C -1.16, A -0.689, S -0.854, W -0.707, M -0.642, N -1.25, Y -0.971, T -0.89, E -1.07, D -1.01, P -1.13, Q -0.909, L -0.975, I -0.862
E41: K -0.269, W -0.387, F -0.405, D -0.093, R -0.377, T 0.032, Y -0.226, L -0.487, V -0.125, A -0.07, S 0.032, M -0.338, I -0.216, C 0.03, G -0.279, Q 0.084, P -1.04, N -0.044
P46: T -0.673, I -0.976, H 0.193, A -0.578, D 0.004, R -0.231, F -0.736, L -0.556, C 0.1, K 0.593, W -0.709
H32: S 0.011, T 0.037, Y -0.573, R 0.084, N 0.275, P 0.171, W 0.163, V -0.196
G44: Y -0.357, H -0.292, F -0.384, A -0.006, Q -0.267, I -0.363, E -0.2, M -0.372, P -0.217, K -0.142, L -0.641, W -0.082, R 0.057, N -0.019, T -0.045, C -0.062, V -0.273
V40: W -0.581, K -0.122, S 0.001, A -0.03, C -0.457, M 0.082, F -0.549, T -0.073, H -0.136, E 0.062, N 0.075, I -0.01, G 0.05, R -0.134, Y -0.275, L -0.363
G45: T -0.093, I 0.133, K -0.134, S -0.244, E -0.032, L -0.149, V -0.242, H -0.443, M -0.382, R -0.114, D 0.034, A 0.035, Y -0.648, C -0.017, P -0.195, Q -0.217, F -0.202
L34: M 0.087, I -0.79, W -0.029, A -0.641, V -0.615, E -0.717, D -0.828, Q -0.48, H -0.569, N -0.733, K -0.23, F -0.039, S -0.617, Y 0.544, T -0.696, G -0.618, R -0.705, C -0.797, P -0.371
H37: V -0.904, C -1.5, R -0.789, Y -0.951, W -0.953, I -1, G -0.565, P -0.787, L -0.741, M -0.728, T -0.903, F -1.1, Q -0.93, E -0.611, N -0.747, S -0.856, A -0.683, D -0.457, K -0.806

From the Human Domainome abundance scans (Beltran et al. 2025)
